In the nanobody polyreactivity screen of Harvey et al. (2022):

Test: yeast display, Sf9 membrane polyspecificity reagent, FACS + sequencing; frameworks hold sequencing errors
Summary of the method: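 A nanobody's polyreactivity label depends on the gate it was sorted from. Yeast display cells were stained with 10% biotinylated, detergent-solubilized Sf9 membrane reagent for 1 hour at 4 °C, enriched on streptavidin microbeads and sorted by FACS. The low and high (top ~1%) gates were set on anti-HA fluorescence for expression and streptavidin fluorescence for reagent binding.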
In the case of “QVQLVVSGGGLVQAGGSLRLSCAASGSTFQYNAMGWYRQAPGKERELVAAISTGTSTYYADSVKGRFTISRDNAKNTVYLQLNSLKTEVTAVYYCAAEYWGDYTEYNYWGHGTQVTVSS”, the “polyreactivity (PSR sort gate)” value is reported as “high polyreactivity”.
In the case of “QVQLVVSGGGLVQAGGSLSLSWAASGRIFSSYAMGWYRQAPGKERELDAAIDRTDSTYYADSVKGRFTISRDNAKNTVYLQMNSLIPEDTAVYYCAVLTYRYQSWGNYYLEYDYWGQGTEVTVSS”, the “polyreactivity (PSR sort gate)” value is reported as “low polyreactivity”.
For “QVQLVVSGGGLVQPGGSLRLSCAASGRTFPYYAMGWYIQAPGKERELVARITGSGTSTNYADSVKGRFTISRDKSKNTVYLKMNSLKPEDTAVYYCAAPKYGSYYIADYEYWGQGTHVTVSS”, the “polyreactivity (PSR sort gate)” value was “low polyreactivity”.
With “QVQLVYSGGGLVQAGGSLRLSCAASGSLFYHNAMGWYRQAAGKEMELDADISWSGGSTYYADSVKGRFTISRDYAKNTVYLQMNSLKPEDTAVYYGNTDARYDEYDEFDYWGQGTQVTVSS” the “polyreactivity (PSR sort gate)” value was “low polyreactivity”.
With “QVQLVYTLGGLDQAGGSLRVSCYASGRTFVYYPMGWYRQAPGKERELVAAITRSGGRTYYADSVKGRFTISRDNAKNTVYLQKYSMKPEETAVYYCAARYCDNPYWFDYWGQGTQVTVSS” the “polyreactivity (PSR sort gate)” value was “high polyreactivity”.
In the case of “QVQMQERAAWCRRAGSLRLSCAASGNITDYYFMSWYRQAPGKERELVAAIAPGSNTYYADSVKGRFTISRDNAKNTVYLQMNSLKPEDTAVCFCAANSTQYTWFDYWGQGTQVPVSS”, the “polyreactivity (PSR sort gate)” value is reported as “low polyreactivity”.
For “QVQPVESGGGLVQAGGSLRLSCAASGLTFYRYAMGWYRQAPGKERELVAAISSGSSTYYADSVKGRFTISRDNSKNTVYLQLNILKPEDTAVYYCAARSIDAHGSRYGYWGQGTQVTVSS”, the “polyreactivity (PSR sort gate)” value was “high polyreactivity”.
With “QVQQQESGGGLVQAGGSLRLSCAASGTIFQLTVMGRYRQAPGKERELVASIDYGGNTNYADSVKGRFTISRDNAKNTVYLQMNSLKPEDTAVYYCAASSDSWTTHPYWGQGTQGTVSS” the “polyreactivity (PSR sort gate)” value was “low polyreactivity”.
For “QVQQQESGGGRCSGRRTTPGLRGERHYFSLLHGLVSPGAGQEREFVAAIAVRSTYYADSAKGRFTINRDNAKYTVYLQMNSLKPEDTSVYSCAAYYSYYGGDYWGQGTQVTVSS”, the “polyreactivity (PSR sort gate)” value was “low polyreactivity”.
For “QVQREESGGGLVQAGGSLRLSCAASGSTFDGNSMGWYTQAPGKERELVAAIRKSGGRTYYADSVKGRFTISRDNAKNTVYLQMNSLKPDDTAVYYCAAYERGFTYRRYYWGQGTQVTVSS”, the “polyreactivity (PSR sort gate)” value was “high polyreactivity”.
In the case of “QVQRLESGGGLVQAGGSLRLSCAASGGTIDWNAMGWYRQAPGKETEFVAAITSSGGSTYYADSVKGRFTISRDNAKNSVYLQMTSLKPEDTAVYECAADFWYYQYPYGGGGYWGQGTQVTVSS”, the “polyreactivity (PSR sort gate)” value is reported as “low polyreactivity”.
With “QVQRVDSGGGLVQAGGSLRLSCDPSGRTHDVNAMGWYRQAPWKERQLVAAISYSGGITYYADSVKGRFTISRDNAKNTVYLQMNSLKPEDTAVYYCAVVGGYPSYTVDYWGQGSQVTVSS” the “polyreactivity (PSR sort gate)” value was “low polyreactivity”.
For “QVQRVECGGGLVLAGGSLRLSCAASGRILVFYAMGWYRQARGKVRELVATITDTGRTNYADSVKGRCTISRDNAKKTDSLQMTSQKPEDTAVYYCAKQRDYGFPWATYDYWGQGTQGTVSS”, the “polyreactivity (PSR sort gate)” value was “low polyreactivity”.
For “QVQRVESAGCLVQAGVSLRLSCPPSRRIFSRYAIGWYRQAPGKERELVAAISWSGGSTYYADSVKGRFTISRDNAMNTVYLQLIILKPEDTAVYYCAARRSYSYGSWGQGTQVTVSS”, the “polyreactivity (PSR sort gate)” value was “high polyreactivity”.
With “QVQRVESGGGIVQAGGSLRLTCAASGITFVSYTIGWSRQAPGKEREFVAAITWNVASTYYADSVKGRFTISRDNAKNTVYLQMNSLKPEDTAVYYCAAYSRFTSDYWGQGTQVTVSS” the “polyreactivity (PSR sort gate)” value was “high polyreactivity”.
In the case of “QVQRVESGGGLGQAGGILLLSCAASGFTFKWYSMGWYRQARGKERELVAGISRRGGTTNYADSFKGRFTISRHNAKNTVNLQINSLKPEDPPVYYCAAESQLTKYYYWGQGTQVTVSS”, the “polyreactivity (PSR sort gate)” value is reported as “high polyreactivity”.
For “QVQRVESGGGLLQAGGSLSLSCAASGSIFEWYAMGWYRQEPGTERELVAAIRSGGTTNYADSVKGRFTISRDHAKNTVYLQMNSLKPEVTAVYDCAAKSVTGLFRYYYWGQGTQVTVTS”, the “polyreactivity (PSR sort gate)” value was “low polyreactivity”.
With “QVQRVESGGGLVQAGGILSLSCAASGSIFPWYAMGWYIQAPANERELVAAITISGGSTHYADSVKGRFTISRDNAKNSVYLEMNSLIPEDTAVYYCSTPRYPSYEYWGLGTQVTVSS” the “polyreactivity (PSR sort gate)” value was “low polyreactivity”.
In the case of “QVQRVESGGGLVQAGGRLRLSCAASGFTFFHYAMGRYRQAPGKERELVAAISWSGGTTYYADSVKGRFTISRDNAKNTVYLQMNCLKPEDTAVYYFAADGGLGWRWLPLGYRYGFDYWGQGTQVTVSS”, the “polyreactivity (PSR sort gate)” value is reported as “low polyreactivity”.
With “QVQRVESGGGLVQAGGRLRLSCAASGRTFDNYAMGWYIQAPGKERELVSAISGGGGTNYADSVKGRFTISPDNAKNTVYLQMNSLKPEDTAVYYCAADTNGYEFDYWGQGTQVTVSS” the “polyreactivity (PSR sort gate)” value was “low polyreactivity”.
With “QVQRVESGGGLVQAGGRLRLSCAASGSISVAKAMGWYRQAPGKERELVAAITDSGDDTYYADSVKGRFTISRDNAKNTVYLQMNSLKPEDTAVYYCAAGLRLDLGAMYYWGQGTQVTVSS” the “polyreactivity (PSR sort gate)” value was “low polyreactivity”.
For “QVQRVESGGGLVQAGGSLRISCAASGSTFITYAMGWYRQERGKERELVAASRWSGGGTYYADSVKGRFTISRDNAKNTVYVQMNSLKPEDTAVYYCAADHFNYTTGRDYWGQGTQVTVSS”, the “polyreactivity (PSR sort gate)” value was “low polyreactivity”.
For “QVQRVESGGGLVQAGGSLRLRCAASGRTFGYYAMGWYRHAPGKERVLVAAINSRGGSTYYADPVKGRFTISRDNAKNTVYLQMNSLKPEDTAVYYCAKRWCSYGSYSLYDYWGQGTQVTVSS”, the “polyreactivity (PSR sort gate)” value was “high polyreactivity”.
In the case of “QVQRVESGGGLVQAGGSLRLSCAASGFIFDGYAMGWYRQAPGKERELVAAIDSGGDRTYYADSVKGRFTISRDNAKNTVYLLMNSLKPEDTAVYYCAADSSDPTGYEYGGQGTQVTVSS”, the “polyreactivity (PSR sort gate)” value is reported as “low polyreactivity”.
For “QVQRVESGGGLVQAGGSLRLSCAASGFIFTSNARGWYRPAPGKERELVAASTKSGGSTYYADSVKGRFTISRDNAKNTVYLQMNSLKPEDTAVYYCAAYPTSRYKYEYWGQGTQVTVSS”, the “polyreactivity (PSR sort gate)” value was “high polyreactivity”.
With “QVQRVESGGGLVQAGGSLRLSCAASGFIITRYSMGWYRQAPGKEREMVAVINSSGGSTYYADSVKGRFTISRDTAKNTVYVQMNSLKPEDTAVYYCNALSRYRIWSYGYWGQGTQVTVSS” the “polyreactivity (PSR sort gate)” value was “high polyreactivity”.
With “QVQRVESGGGLVQAGGSLRLSCAASGGTFPQYAMGWDRQSHGKETEFVADITSRGGTTYYADSVKGRFTISRDNAKNTVYLQMNSLKPEDTAVNYCAADNPADWWGLDYWGQGTQVTVSS” the “polyreactivity (PSR sort gate)” value was “low polyreactivity”.
In the case of “QVQRVESGGGLVQAGGSLRLSCAASGIIFRGYAMGWYRQAPGKERELVAAITSSGARTYYADSVKGRFTISRDNAKNTVYLQMNSLKPDDTAVYYCNATSSVRRYDSWGQGTQVTVSS”, the “polyreactivity (PSR sort gate)” value is reported as “high polyreactivity”.
In the case of “QVQRVESGGGLVQAGGSLRLSCAASGRIFLIYAMGWYRPAPGKERELVAGISSGGSTYYADSVKGRFTISRDNAKNTVYLQMNSLKPEDTAVYYCAARRYYYRYLFGRYAYGYWGQGTQVNVSS”, the “polyreactivity (PSR sort gate)” value is reported as “low polyreactivity”.
In the case of “QVQRVESGGGLVQAGGSLRLSCAASGRIFRYYAMGWYRQAPGKERELVASISRRGGSTNYADSVKGRFTISRDNAKNTVYLQMNSLKPEYTAVYYSNAENWSPRGLYNYWGQGTQVTVSS”, the “polyreactivity (PSR sort gate)” value is reported as “high polyreactivity”.
With “QVQRVESGGGLVQAGGSLRLSCAASGRIFVNYPIGWYRQAPGKERELVAAITSHGSTSYADSVKGRFTISRDNAKNTVYLQMNSLKPEDTAVYYCANDFFEHSPVSHTYSSSKYDYWGQGTQVTVSS” the “polyreactivity (PSR sort gate)” value was “low polyreactivity”.
In the case of “QVQRVESGGGLVQAGGSLRLSCAASGSIFNSNAMGWYRLAHGKERELVAAINWRGGSTYYADSVKGRFTISRDNAKNTVYLQMNSLKPEDSAVYYCAAVGWFHDYYWGQGTQLTVSS”, the “polyreactivity (PSR sort gate)” value is reported as “high polyreactivity”.
For “QVQRVESGGGLVQAGGSLRLSCAASGSIFSYNAMGWYRQAPGKERELVAAIRASGGDTYYADSVKGRFTISRDNAKNTVYLQMISLKPEDTAVYYCAARTYAHHYASHGYWGQGTQVTVSS”, the “polyreactivity (PSR sort gate)” value was “low polyreactivity”.
With “QVQRVESGGGLVQAGGSLRLSCAASGSILFHYAMGWYRQAPGKEREMVAAISRRGGSTYYADSVKGRFSISRDNAKNTVYLQMNSLKPEDTAVYYCAKYPSAYVDSDVTYDMDYWGQGTQVTVSS” the “polyreactivity (PSR sort gate)” value was “low polyreactivity”.
With “QVQRVESGGGLVQAGGSLRLSCAASGSILGIYGMGWYRQAPGKERELVAAISYSGGSTYYADSVKGRFTISSDNAKNTVYLQMNSLKPEDNAVYYCAADLTRGVSYYVDFYYWGQGTQVTVSS” the “polyreactivity (PSR sort gate)” value was “low polyreactivity”.
In the case of “QVQRVESGGGLVQAGGSLRLSCAASGSTFNRNALGWYRPEPGKERELVAAISWRGDSTSYADSVKGRFTITRDNAKNTVYLQMNSLKPEDTAVYNCASAHAYAFYRYWYVPSEYNYWGQGTQVTVSS”, the “polyreactivity (PSR sort gate)” value is reported as “low polyreactivity”.
In the case of “QVQRVESGGGLVQAGGSLRLSCAGSGRIFVQYAMGWYRQAPGKERELVAAISGSGGRTYYADSVKGRFTISRDNAKNTVYLQMNSLKPEDTAVYYCARRGAYTGRYDYWGQGTQVTVSS”, the “polyreactivity (PSR sort gate)” value is reported as “high polyreactivity”.
For “QVQRVESGGGLVQAGGSLRLSCAGSGSTFAQNGMGWYRPAPGKERELVAAIRWNGGSTYYADSVKGRFTISRDNAKNTVYLQMNSLKPEDTAVYYCAARHPLYRVQHEDWGQGTQVTVSS”, the “polyreactivity (PSR sort gate)” value was “low polyreactivity”.
In the case of “QVQRVESGGGLVQAGGSLRLSCAHSGRTFPRYVMGRYRQAPAKERELVAAITSSGGSTYYADSVKGRFTISRDNAKNTVYLQMNSLKPEDTAVYYCAAYARPYSGPYAYRLDYWGQGTQVTVSS”, the “polyreactivity (PSR sort gate)” value is reported as “high polyreactivity”.
In the case of “QVQRVESGGGLVQAGGSLRLSCSASGRTFGHNTMGRYRQAPGKETEFVAAIDFNGGSTYYADSVKGRFTISRDNAQNTVYLQMNSLKPEDTAVYYCAADIYFYYYGSYDYWGQGTQVTVSS”, the “polyreactivity (PSR sort gate)” value is reported as “low polyreactivity”.
With “QVQRVESGGGLVQAGGSLRLSSADSGSTLSGYAMGWYRQAPGKERELVATIRITGGRTYYADSVKGRFTISRDNAKNTVYLQMNSLKPEDTAVYYCNVRSRRRVSSYDYWGQGTQVTVSS” the “polyreactivity (PSR sort gate)” value was “high polyreactivity”.
